Assays:
[1] = biological target: T1, human IgG Fc fragment (ICN) (human); test: SPR (BIAcore 2000), human Fc immobilised, rIGBPMA 1 mg/ml as analyte
T1 construct: domain: Fc fragment; also called human Fc fragment; Fc (human) fragment

[2] = biological target: human IgE (Serotech) (human); test: SPR (BIAcore 2000), human IgE against guinea pig IgG on the same chip

B1: recombinant IGBPMA (rIGBPMA), N-terminal 26 amino acid truncated, C-terminal 6-His-tag, expressed in (other)
chain: YEVYTGRGVTITVDNTQYEIPADLEKIFQKPKGFSVGSLLVALQEKGIPVNVDEKTGVILGITIDKVRVPFPVSIDLRFKLDNQIYLIPRDLAKLITVLEKKGMPSKILFILYTRYGVVPVRDSNGIVVAISFNGKQFKVKPEPLTAVVILGQKFILPRDTRKMVEFVHSKQSHPEIGFIFLKALKSAGFMLINDDDGAMRSIQKGAQIIKLGFEIRIQVIYGKTTYHVPKDLMRLVKDVRSLGPQEIQSVMKQLKAFDVQVKKEGSKLTILFNSVRYEVDLKSGNVKGHHHHHH
notes: also called soluble rIGBPMA; Clone No. F6
Question: With B1 as the binder, how does the “fold of binding over non-specific binding (BSA, F(ab)2)” value [1] read?
Answer: The value was 2 fold.

Question: And the “fold of binding signal against IgG” value [2]?
Answer: Its value is 2 fold.

Reference: patent US20080280828A1 (NATURAL ENVIRONMENT RESEARCH COUNCIL, published 2008)
